19 molecules from patent publication US20240279345A1, “ALPHA 5 BETA 1 INTEGRIN BINDING AGENTS AND USES THEREOF” (PASITHEA THERAPEUTICS CORP., priority 2021, published 2024) can be followed below.

First the molecules themselves.
B1: A2-8H11 (antibody, V domains shown)
VH: QVQLKESGPGLVAPSQSLSITCTISGFSLTTYGVHWVRQPPGKGLEWLVVIWSDGSTTYNSALKSRLNITKDNSKSQVFLKMNSLQTDDTAMYYCVRHGGLLRRDAMDYWGQGTSVTVSS
VL: QIVLTQSPAIMSASLGERVTMTCTASSSVSSNSFHWYQQKPGSSPKLWLYSTSNLASGVPARFSGSGSGTSYSLTISSMEAEDAATYYCHQYLRSPPTFGGGTKLEIK
notes: mouse hybridoma
B2: A2-9A11 (antibody, V domains shown)
VH: QVQLKESGPGLVAPSQSLSITCTISGFSLTTYGVHWVRQPPGKGLEWLVVIWSDGSTTYNSALKSRLNITKDNSKSQVFLKMNSLQTDDTAMYYCVRHGGLLRRDAMDYWGQGTSVTVSS
VL: QIVLTQSPAIMSASLGERVTMTCTASSSVSSNSFHWYQQKPGSSPKLWLYSTSNLASGVPARFSGSGSGTSYSLTISSMEAEDAATYYCHQYLRSPPTFGGGTKLEIK
notes: mouse hybridoma
B3: C-8G11 (antibody, V domains shown)
VH: QVQLKESGPDLVAPSQSLSITCTVSGFSLTDYGVHWVRQPPGKGLEWLVVIWSDGSTTYNSALKSRLSITKDTSKRQVFLKMNSLQTDDTAMYYCARHAPSFIRYGSRYDALDYWGQGTSVTVSS
VL: QIVLTQSPAIMSASLGERVTLTCTASSSVTSSFLHWYQQKPGSSPKLWIYSTSNLASGVPARFSGSGSGTSYSLTISSMEAEDAATYYCHQYHRSPPTFGGGTKLEIK
notes: mouse hybridoma
B4: A2-6C10 (antibody, V domains shown)
VH: QVQLKESGPGLVAPSQSLSITCTISGFSLTTYGVHWVRQPPGKGLEWLVVIWSDGSTTYNSALKSRLNITKDNSKSQVFLKMNSLQTDDTAMYYCVRHGGLLRRDAMDYWGQGTSVTVSS
VL: QIVLTQSPAIMSASLGERVTMTCTASSSVSSNSFHWYQQKPGSSPKLWLYSTSNLASGVPARFSGSGSGTSYSLTISSMEAEDAATYYCHQYLRSPPTFGGGTKLEIK
notes: mouse hybridoma
B5: C-14D12 (antibody, V domains shown)
VH: QVQLKESGPDLVAPSQSLSITCTVSGFSLTDYGVHWVRQPPGKGLEWLVVIWSDGSTTYNSALKSRLSITKDTSKRQVFLKMNSLQTDDTAMYYCARHAPSFIRYGSRYDALDYWGQGTSVTVSS
VL: QIVLTQSPAIMSASLGERVTLTCTASSSVTSSFLHWYQQKPGSSPKLWIYSTSNLASGVPARFSGSGSGTSYSLTISSMEAEDAATYYCHQYHRSPPTFGGGTKLEIK
notes: mouse hybridoma antibody (supernatant, or purified by Protein A); also called antibody designated C-14D12; C-14D2
B6: A2-3B06 (antibody, V domains shown)
VH: QVQLKESGPGLVAPSQSLSITCTISGFSLTTYGVHWVRQPPGKGLEWLVVIWSDGSTTYNSALKSRLNITKDNSKSQVFLKMNSLQTDDTAMYYCVRHGGLLRRDAMDYWGQGTSVTVSS
VL: QIVLTQSPAIMSASLGERVTMTCTASSSVSSNSFHWYQQKPGSSPKLWLYSTSNLASGVPARFSGSGSGTSYSLTISSMEAEDAATYYCHQYLRSPPTFGGGTKLEIK
notes: mouse hybridoma antibody (supernatant, or purified by Protein A); also called antibody designated A2-3B06
B7: A-15B08 (antibody, V domains shown)
VH: QVQLKESGPGLVAPSQSLSITCTISGFSLTSYGVHWVRQPPGKGLEWLVVIWSDGSTTYNSTLKSRLSISKDNSKSQVFFKMNSLQTDDTAMYYCARHYDYDGDWFAYWGQGTLVTVSA
VL: QIVLTQSPAIMSASLGERVTMTCTASSRVSSNSLHWYQQKPGSSPKLWIYSTSNLASGVPARFSGSGSGTSYSLTISSMEAEDAATYYCHQYLRSPPTFGGGTKLEIK
notes: mouse hybridoma antibody (supernatant, or purified by Protein A); NST N-glycosylation site in CDRH2; also called antibody designated A-15B08
B8: A-4G02 (antibody, V domains shown)
VH: QVQLKESGPGLVAPSQSLSITCTISGFSLTSYGVHWVRQPPGKGLEWLVVIWSDGSTTYNSTLKSRLSISKDNSKSQVFFKMNSLQTDDTAMYYCARHYDYDGDWFAYWGQGTLVTVSA
VL: QIVLTQSPAIMSASLGERVTMTCTASSRVSSNSLHWYQQKPGSSPKLWIYSTSNLASGVPARFSGSGSGTSYSLTISSMEAEDAATYYCHQYLRSPPTFGGGTKLEIK
notes: mouse hybridoma
B9: A2-5D10 (antibody, V domains shown)
VH: QVQLKESGPGLVAPSQSLSITCTISGFSLTSYGVHWVRQPPGKGLEWLVVIWSDGSTTYNSTLKSRLSISKDNSKSQVFLKMNSLQTDDTAMYYCARHYDYDGDWFAYWGQGTLVTVSA
VL: QILLTQSPAIMSASLGERVTMTCTASSSVSSRCLHWYQQKPGSSPKLWIYSTSNLASGVPARFRGSGSGTSYSLTISSMEAEDAATYYCHQYYRSPPTFGGGTKLEIK
notes: mouse hybridoma antibody (supernatant, or purified by Protein A); also called antibody designated A2-5D10
B10: A2-7A05 (antibody, V domains shown)
VH: QVQLQQPGAELVKPGASVKLSCKASGYTFTIYWINWVKQRPGQGLEWIGKIYPGSISTDYNEKFKSKATLTVDTSSSTAYMQLSSLTSDDSAVYYCAITGTGGLAYWGQGTLVTVSA
VL: ENVLTQSPAIMSASLGEKVTMTCRASSSVNYMYWYQQKSDASPKLWIYFTSSLAPGVPGRFSGSGSGNSYSLTISTMEGEDAATYYCQQFTTSPFTFGSGTKLEIK
notes: mouse hybridoma antibody (supernatant, or purified by Protein A); also called antibody designated A2-7A05; A-7A05
B11: A-14G08 (antibody, V domains shown)
VH: QVQLQQPGAELVKPGASVKLSCKASGYTFTIYWINWVKQRPGQGLEWIGKIYPGSISTDYNEKFKSKATLTVDTSSSTAYMQLSSLTSDDSAVYYCAITGTGGLAYWGQGTLVTVSA
VL: ENVLTQSPAIMSASLGEKVTMTCRASSSVNYMYWYQQKSDASPKLWIYFTSSLAPGVPGRFSGSGSGNSYSLTISTMEGEDAATYYCQQFTTSPFTFGSGTKLEIK
notes: mouse hybridoma
B12: A2-7F01 (antibody, V domains shown)
VH: QVQLQQPGAELVKPGASVKLSCKASGYTFTIYWINWVKQRPGQGLEWIGNIYPGSSSTNYNEKFKTKATLTVDTSSSTAYMQLSSLTSDDSAVYYCAITGTGGFAYWGQGTLVTVSA
VL: ENVLTQSPAIMSASLGEKVTMSCRASSSVNYMYWYQQKSDASPKLWIYFTSSLAPGVPTRFSGSGSGNSFSLTISSMEGEDAATYYCQQLTGSPFTFGSGTRLEIK
notes: mouse hybridoma antibody (supernatant, or purified by Protein A); also called antibody designated A2-7F01
B13: A-4G02 (antibody, V domains shown)
VH: QVQLKESGPGLVAPSQSLSITCTISGFSLTSYGVHWVRQPPGKGLEWLVVIWSDGSTTYNSTLKSRLSISKDNSKSQVFFKMNSLQTDDTAMYYCARHYDYDGDWFAYWGQGTLVTVSA
VL: QIVLTQSPAIMSASLGERVTMTCTASSRVSSNSLHWYQQKPGSSPKLWIYSTSNLASGVPARFSGSGSGTSYSLTISSMEAEDAATYYCHQYLRSPPTFGGGTKLEIK
notes: mouse hybridoma antibody
B14: A-7D06 (antibody, V domains shown)
VH: QVQLKESGPGLVAPSQSLSITCTISGFSLTTYGVHWVRQPPGKGLEWLVVIWSDGSTTYNSALKSRLNITKDNSKSQVFLKMNSLQTDDTAMYYCVRHGGLLRRDAMDYWGQGTSVTVSS
VL: QIVLTQSPAIMSASLGERVTMTCTASSSVSSNSFHWYQQKPGSSPKLWLYSTSNLASGVPARFSGSGSGTSYSLTISSMEAEDAATYYCHQYLRSPPTFGGGTKLEIK
notes: mouse hybridoma antibody
B15: A-11G01 (antibody, V domains shown)
VH: QVQLKESGPGLVAPSQSLSITCTISGFSLTTYGVHWVRQPPGKGLEWLVVIWSDGSTTYNSALKSRLNITKDNSKSQVFLKMNSLQTDDTAMYYCVRHGGLLRRDAMDYWGQGTSVTVSS
VL: QIVLTQSPAIMSASLGERVTMTCTASSSVSSNSFHWYQQKPGSSPKLWLYSTSNLASGVPARFSGSGSGTSYSLTISSMEAEDAATYYCHQYLRSPPTFGGGTKLEIK
notes: mouse hybridoma antibody
B16: C-8G11 (antibody, V domains shown)
VH: QVQLKESGPDLVAPSQSLSITCTVSGFSLTDYGVHWVRQPPGKGLEWLVVIWSDGSTTYNSALKSRLSITKDTSKRQVFLKMNSLQTDDTAMYYCARHAPSFIRYGSRYDALDYWGQGTSVTVSS
VL: QIVLTQSPAIMSASLGERVTLTCTASSSVTSSFLHWYQQKPGSSPKLWIYSTSNLASGVPARFSGSGSGTSYSLTISSMEAEDAATYYCHQYHRSPPTFGGGTKLEIK
notes: mouse hybridoma antibody
B17: A-3A08 (antibody, V domains shown)
VH: QVQLKESGPGLVAPSQSLSITCTISGFSLTTYGVHWVRQPPGKGLEWLVVIWSDGSTTYNSALKSRLNITKDNSKSQVFLKMNSLQTDDTAMYYCVRHGGLLRRDAMDYWGQGTSVTVSS
VL: QIVLTQSPAIMSASLGERVTMTCTASSSVSSNSFHWYQQKPGSSPKLWLYSTSNLASGVPARFSGSGSGTSYSLTISSMEAEDAATYYCHQYLRSPPTFGGGTKLEIK
notes: mouse hybridoma antibody
B18: A-14G08 (antibody, V domains shown)
VH: QVQLQQPGAELVKPGASVKLSCKASGYTFTIYWINWVKQRPGQGLEWIGKIYPGSISTDYNEKFKSKATLTVDTSSSTAYMQLSSLTSDDSAVYYCAITGTGGLAYWGQGTLVTVSA
VL: ENVLTQSPAIMSASLGEKVTMTCRASSSVNYMYWYQQKSDASPKLWIYFTSSLAPGVPGRFSGSGSGNSYSLTISTMEGEDAATYYCQQFTTSPFTFGSGTKLEIK
notes: mouse hybridoma antibody
B19: A-15H11 (antibody, V domains shown)
VH: QVQLQQPGAELVKPGASVKLSCKASGYTFTIYWINWVKQRPGQGLEWIGKIYPGSISTDYNEKFKSKATLTVDTSSSTAYMQLSSLTSDDSAVYYCAITGTGGLAYWGQGTLVTVSA
VL: ENVLTQSPAIMSASLGEKVTMTCRASSSVNYMYWYQQKSDASPKLWIYFTSSLAPGVPGRFSGSGSGNSYSLTISTMEGEDAATYYCQQFTTSPFTFGSGTKLEIK
notes: mouse hybridoma antibody

T2 sequence (P08648 42-995 limits assumed, form in doubt, chain 1 of 2): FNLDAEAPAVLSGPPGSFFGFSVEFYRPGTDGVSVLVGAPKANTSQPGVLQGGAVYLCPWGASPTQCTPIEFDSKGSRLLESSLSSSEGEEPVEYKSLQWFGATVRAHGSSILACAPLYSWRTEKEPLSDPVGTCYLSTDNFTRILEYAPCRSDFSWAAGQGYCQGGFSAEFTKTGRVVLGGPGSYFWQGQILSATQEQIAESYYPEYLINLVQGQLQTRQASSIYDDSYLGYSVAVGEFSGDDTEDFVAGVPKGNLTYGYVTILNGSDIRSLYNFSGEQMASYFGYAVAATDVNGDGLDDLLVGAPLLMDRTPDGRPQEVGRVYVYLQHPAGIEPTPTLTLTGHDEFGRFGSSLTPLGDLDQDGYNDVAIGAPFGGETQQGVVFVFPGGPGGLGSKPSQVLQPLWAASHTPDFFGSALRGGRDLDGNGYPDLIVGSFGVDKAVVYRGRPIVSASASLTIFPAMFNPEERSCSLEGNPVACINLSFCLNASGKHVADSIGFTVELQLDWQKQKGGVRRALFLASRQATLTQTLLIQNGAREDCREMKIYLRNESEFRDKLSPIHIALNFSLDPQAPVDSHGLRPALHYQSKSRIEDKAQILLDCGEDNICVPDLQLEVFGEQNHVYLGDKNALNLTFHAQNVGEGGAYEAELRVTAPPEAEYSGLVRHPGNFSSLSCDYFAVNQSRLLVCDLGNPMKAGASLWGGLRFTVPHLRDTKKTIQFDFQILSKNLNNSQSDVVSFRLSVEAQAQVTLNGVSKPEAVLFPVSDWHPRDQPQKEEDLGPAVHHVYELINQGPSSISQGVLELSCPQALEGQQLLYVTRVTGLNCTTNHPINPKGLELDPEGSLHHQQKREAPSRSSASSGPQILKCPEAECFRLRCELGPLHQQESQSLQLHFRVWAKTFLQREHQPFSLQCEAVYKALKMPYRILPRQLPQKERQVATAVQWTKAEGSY
T2 sequence (P05556 21-728 limits assumed, form in doubt, chain 2 of 2): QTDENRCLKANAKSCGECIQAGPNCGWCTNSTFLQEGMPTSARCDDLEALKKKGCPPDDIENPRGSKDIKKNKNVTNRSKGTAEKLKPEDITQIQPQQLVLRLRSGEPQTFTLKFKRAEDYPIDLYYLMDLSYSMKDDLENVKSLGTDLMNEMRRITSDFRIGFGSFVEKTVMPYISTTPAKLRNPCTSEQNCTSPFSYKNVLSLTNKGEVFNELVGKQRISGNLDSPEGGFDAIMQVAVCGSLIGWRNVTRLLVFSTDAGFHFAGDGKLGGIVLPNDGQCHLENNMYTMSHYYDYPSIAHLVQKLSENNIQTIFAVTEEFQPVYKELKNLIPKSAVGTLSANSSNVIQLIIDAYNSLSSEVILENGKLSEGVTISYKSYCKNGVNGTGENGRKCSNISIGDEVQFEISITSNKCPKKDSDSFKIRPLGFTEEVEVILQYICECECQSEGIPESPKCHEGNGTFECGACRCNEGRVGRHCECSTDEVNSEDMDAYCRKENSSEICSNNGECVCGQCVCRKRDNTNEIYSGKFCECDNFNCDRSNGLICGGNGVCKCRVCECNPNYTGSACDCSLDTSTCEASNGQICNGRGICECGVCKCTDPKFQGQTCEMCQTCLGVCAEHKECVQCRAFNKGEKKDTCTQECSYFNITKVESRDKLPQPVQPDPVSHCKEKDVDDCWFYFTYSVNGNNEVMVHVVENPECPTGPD

The first assay deals with T1, α5β1 integrin on cells (PMA-activated K562 cells; U87MG cells) (human, UniProt P08648 42-1049; P05556 21-798).
T1 construct: Endogenous integrin of human cell lines; also called cellular α5β1 integrin; cell surface α5β1 integrin receptors
T1 sequence (P08648 42-1049 limits assumed, chain 1 of 2): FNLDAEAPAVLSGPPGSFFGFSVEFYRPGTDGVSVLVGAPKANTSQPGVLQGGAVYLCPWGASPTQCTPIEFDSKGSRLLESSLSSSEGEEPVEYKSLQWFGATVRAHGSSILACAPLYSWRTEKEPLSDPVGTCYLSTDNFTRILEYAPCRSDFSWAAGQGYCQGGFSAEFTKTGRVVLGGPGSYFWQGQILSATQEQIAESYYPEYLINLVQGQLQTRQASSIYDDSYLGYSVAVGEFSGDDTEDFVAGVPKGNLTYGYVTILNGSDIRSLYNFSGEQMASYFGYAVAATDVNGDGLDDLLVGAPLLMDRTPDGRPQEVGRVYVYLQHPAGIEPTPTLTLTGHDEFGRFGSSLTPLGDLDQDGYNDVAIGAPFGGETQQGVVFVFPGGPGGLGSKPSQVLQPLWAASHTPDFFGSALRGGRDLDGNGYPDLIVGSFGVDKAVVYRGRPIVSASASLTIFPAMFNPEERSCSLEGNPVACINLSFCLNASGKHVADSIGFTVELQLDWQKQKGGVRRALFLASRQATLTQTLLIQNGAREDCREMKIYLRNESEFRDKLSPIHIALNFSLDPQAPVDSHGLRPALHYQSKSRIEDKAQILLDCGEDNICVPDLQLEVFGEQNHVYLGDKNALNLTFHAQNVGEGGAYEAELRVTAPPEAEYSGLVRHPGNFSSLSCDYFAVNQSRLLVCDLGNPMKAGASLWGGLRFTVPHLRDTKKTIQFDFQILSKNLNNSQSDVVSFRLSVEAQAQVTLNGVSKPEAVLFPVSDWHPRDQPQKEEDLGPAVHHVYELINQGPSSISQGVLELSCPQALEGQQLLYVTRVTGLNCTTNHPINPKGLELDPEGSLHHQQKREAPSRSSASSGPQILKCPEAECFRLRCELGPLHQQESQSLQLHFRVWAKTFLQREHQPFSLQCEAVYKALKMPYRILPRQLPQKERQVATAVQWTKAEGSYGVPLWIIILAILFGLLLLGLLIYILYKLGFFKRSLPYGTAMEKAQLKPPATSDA
T1 sequence (P05556 21-798 limits assumed, chain 2 of 2): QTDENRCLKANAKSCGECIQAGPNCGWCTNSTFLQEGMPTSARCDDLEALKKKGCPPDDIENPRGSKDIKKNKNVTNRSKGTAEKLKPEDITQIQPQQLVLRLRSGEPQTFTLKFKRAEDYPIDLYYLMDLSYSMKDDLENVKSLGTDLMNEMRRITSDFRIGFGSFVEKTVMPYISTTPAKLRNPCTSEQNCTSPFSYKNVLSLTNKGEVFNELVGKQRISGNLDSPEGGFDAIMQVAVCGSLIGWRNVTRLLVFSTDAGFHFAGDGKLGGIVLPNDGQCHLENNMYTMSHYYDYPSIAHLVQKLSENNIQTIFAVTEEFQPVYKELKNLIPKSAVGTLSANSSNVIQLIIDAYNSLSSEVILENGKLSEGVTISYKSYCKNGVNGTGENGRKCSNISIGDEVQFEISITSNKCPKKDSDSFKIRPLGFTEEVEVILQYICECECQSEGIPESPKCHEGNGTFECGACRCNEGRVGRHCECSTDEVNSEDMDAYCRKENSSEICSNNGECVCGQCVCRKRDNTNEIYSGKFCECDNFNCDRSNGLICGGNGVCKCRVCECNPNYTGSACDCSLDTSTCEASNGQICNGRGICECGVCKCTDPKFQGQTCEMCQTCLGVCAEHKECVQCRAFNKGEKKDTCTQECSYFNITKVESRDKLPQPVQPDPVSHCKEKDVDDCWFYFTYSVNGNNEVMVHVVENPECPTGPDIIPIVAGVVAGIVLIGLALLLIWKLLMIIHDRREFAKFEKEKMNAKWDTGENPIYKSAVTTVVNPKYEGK
The experiment in a line: flow cytometry on PMA-activated K562 cells, hybridoma supernatant. As for the experimental part:
Four weeks later cells from spleens and draining lymph nodes were fused to create hybridomas. […] In short, hybridoma supernatants were incubated with the activated K562 cells for 20 minutes, washed, then incubated with a fluorescent conjugated detecting antibody for 20 minutes, washed, resuspended in 7-Aminoactinomycin D, and Mean Fluorescence Intensity (MFI) measured on a Guava cytometer (Luminex Corporation, Austin, TX 78727).
B1: the MFI was determined as 4370.

Take B2: the MFI worked out at 3400.

In the case of B3, the MFI was found to be 2690.

Molecule B4 registered an MFI of 2120.

The molecule B5 registered an MFI of 2020.

As for B6, the MFI stood at 2140.

Take B7: the MFI was 1390.

In the case of B8, the MFI is 1980.

Consider B9, for which the MFI came to 1890.

As for B10, the MFI came to 5500.

B11 registered an MFI of 4210.

B12 gave an MFI of 6260.

A further assay concerns the target T2, purified recombinant human α5β1 integrin heterodimer, 6×His tagged (rh-α5β1); Acro Biosystems, cat. no. … (human, UniProt P08648 42-995; P05556 21-728).
T2 construct: bought recombinant heterodimer; also called rh-α5β1-6×His tagged protein; His-tagged-α5β1
Briefly: BLI (Octet), supernatant mAb on anti-mouse IgG Fc sensor, 20 nM rh-α5β1. The source says: Anti-Mouse IgG Fc biosensors were used to load each clone supernatant. Assay steps were as follows: Sensor Check (30s)-->Load Ab (700s)-->Quench (480s)-->Baseline(480s)-->Ab Assoc. (600s)-->Dissoc. (600s).
For B13, the Kd stood at 1.23 nM, the off-rate (koff) came out at 0.000396 s⁻¹ and the kon was 321000 M⁻¹ s⁻¹.

Consider B14, for which the dissociation constant (Kd) came to 4.75 nM, the koff came to 0.00128 s⁻¹ and the kon was 270000 M⁻¹ s⁻¹.

As to B15, the Kd amounted to 5.03 nM, the off-rate constant (koff) came to 0.00132 s⁻¹ and the kon came out at 261000 M⁻¹ s⁻¹.

As to B16, the Kd is 0.442 nM, the koff was found to be 0.00012 s⁻¹ and the on-rate (kon) was found to be 271000 M⁻¹ s⁻¹.

Regarding B17, the equilibrium dissociation constant (Kd) amounted to 5.08 nM, the koff worked out at 0.00124 s⁻¹ and the on-rate constant (kon) was determined as 244000 M⁻¹ s⁻¹.

Turning to B18, the equilibrium dissociation constant (Kd) was 0.845 nM, the koff is 0.000198 s⁻¹ and the kon is 234000 M⁻¹ s⁻¹.

B19: the dissociation constant Kd was found to be 0.901 nM, the off-rate constant (koff) turned out to be 0.000193 s⁻¹ and the kon is 215000 M⁻¹ s⁻¹.
